From patent US20050281829A1, “Fc chimeric proteins with anti-HIV drugs” (priority 2003, published 2005)
Where two headings read alike, the source gives them in different places.

Legend:
[1] = target: human serum albumin (Homo sapiens, UniProt P02768); settings: SPR, FIG. 11
[2] = monkeys, single intravenous bolus; FIG. 8A/8B
Experimental: The animals were sedated with ketamine (≈10 mg/kg) prior to dosing. The hair from the dosing area were clipped, cleansed with alcohol, and air-dried prior to delivering the dose. This was followed by a 3 mL saline flush. Samples were obtained from the femoral vein at indicated times. The blood was allowed to clot and the serum was separated and frozen until analysis.

[3] = neonatal rats, oral (gavage); FIG. 9
Source text: The blood was allowed to clot and the serum was separated and frozen until analysis.

Row | Substance | binding to human serum albumin relative to binding of either FcT20 or T20Fc ([1]; 25° C., Req divided by molecular weight) | binding to human serum albumin (in words) [1] | serum half life [2] | serum half life [3]
1 | enfuvirtide | more than 3 fold |  |  | 
2 | Fc-T20: Recombinant chimeric protein: human Fc linked via a glycine peptide linker to T20 at the Fc C terminus (SEQ ID NO:4) |  | reduced binding | greater than 40 hours | 23 h
